Data taken from patent US20100028415A1.

How the values were obtained:
centromere B = centromere B (UniProt P07199); assay: Luminex AtheNA Multi-Lyte ANA Test, 0.15 µg mab per test
SS-A/Ro = assay: as above
histones = assay: as above
Mab 4E10 = assay: competition ELISA: gp140 (19.25-1230 nM) mixed with 10 µg/ml 4E10 MAb, added to wells with 1.35 µg cardiolipin

UniProt P07199, sequence (P07199 2-599 limits assumed): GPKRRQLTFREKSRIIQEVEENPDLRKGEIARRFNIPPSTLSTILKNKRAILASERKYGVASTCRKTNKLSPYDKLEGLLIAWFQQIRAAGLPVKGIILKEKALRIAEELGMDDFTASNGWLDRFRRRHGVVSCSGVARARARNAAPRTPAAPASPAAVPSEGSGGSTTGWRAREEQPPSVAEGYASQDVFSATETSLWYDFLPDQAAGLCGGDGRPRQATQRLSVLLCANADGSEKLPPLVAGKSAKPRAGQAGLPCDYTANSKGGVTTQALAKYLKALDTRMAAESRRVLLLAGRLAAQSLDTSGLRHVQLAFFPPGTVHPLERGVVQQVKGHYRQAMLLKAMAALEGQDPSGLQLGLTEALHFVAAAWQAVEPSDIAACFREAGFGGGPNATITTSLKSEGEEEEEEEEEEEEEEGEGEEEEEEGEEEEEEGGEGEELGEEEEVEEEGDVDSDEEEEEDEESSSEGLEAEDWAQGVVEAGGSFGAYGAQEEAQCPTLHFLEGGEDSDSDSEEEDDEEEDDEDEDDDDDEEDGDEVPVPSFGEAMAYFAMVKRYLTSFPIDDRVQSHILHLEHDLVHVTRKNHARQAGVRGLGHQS

A32 (antibody) was tested. Which centromere B antibody value (relative units based on a standard curve) (relative units) (centromere B) did it give?
The centromere B antibody value (relative units based on a standard curve) (relative units) was 1130.

For Mab 2F5 (antibody), which Ro (SSA) antibody value (relative units based on a standard curve) (relative units) (SS-A/Ro) is on record?
The Ro (SSA) antibody value (relative units based on a standard curve) (relative units) was 290.

What about the centromere B antibody value (relative units based on a standard curve) (relative units) (centromere B) of the same substance?
The centromere B antibody value (relative units based on a standard curve) (relative units) was 1780.

What about the histone antibody value (relative units based on a standard curve) (relative units) (histones) of the same substance?
The histone antibody value (relative units based on a standard curve) (relative units) was 1010.

Which Ro (SSA) antibody value (relative units based on a standard curve) (relative units) (SS-A/Ro) does the source give for Mab 4E10 (antibody) here?
Its Ro (SSA) antibody value (relative units based on a standard curve) (relative units) is 221.

What does the source list for Mab IgG1b12 (antibody)?
centromere B antibody value (relative units based on a standard curve) (relative units) (centromere B): 479; histone antibody value (relative units based on a standard curve) (relative units) (histones): 185

Which IC50 (Mab 4E10) does the source give for “soluble HIV-1 Env gp140 oligomers (CON-S)” here?
Its IC50 is 145 nM.
